Laboratory results taken from patent US20250340655A1, “EPHA2-TARGETING ANTIBODIES AND THEIR APPLICATIONS IN CANCER TREATMENT” (TAIPEI MEDICAL UNIVERSITY, priority 2022, published 2025).
Each block holds one molecule with its values, some of them ahead of it. Ends that are not written are not given here. BSA = bovine serum albumin carrier conjugated to the peptide

Tests used:
BxPc-3 tumor = BxPc-3 tumor xenograft model (IgG hSD5, gemcitabine); format: in vivo, mouse; conditions: BxPc-3 xenograft, iv
Protocol: (§1) The freshly prepared BxPc-3 and Mia PaCa-2 cancer cells were harvested during the log growth phase and resuspended in PBS for tumor implantation. Each NOD/SCID mouse was subcutaneously inoculated with cancer cells (5×10^6 to BxPc-3 and 1×10^7 to Mia PaCa-2) for tumor formation. The tumor size was measured twice weekly, and the volume was calculated as follows: V=0.5lw^2, where l=the length and w=the width. When the tumor size was approximately 100 mm3, animals were divided into groups that received (a) vehicle alone through intravenous injection (i.v.) once weekly (qwk), (b) control human IgG1 at 20 mg/kg through i.v. qwk, (c) and (d) hSD5 IgG1 at 2 or 20 mg/kg through i.v. qwk, (e) and (f) gemcitabine at 20 or 100 mg/kg through i.v. twice weekly (biw), or (g) hSD5 IgG1 at 2 mg/kg through i.v. qwk combined with gemcitabine at 20 mg/kg through i.v. biw. At the end of the experiment, the antitumor effects were quantified by dividing the tumor volumes in the treatment groups by those in the control groups and multiplying them by 100 to represent tumor growth inhibition (TGI; %). The mice were also examined frequently for overt signs of adverse drug-related side effects.
(§2) The pancreatic tissue microarray slide (US Biomax, PA483e) was used to detect and analyze the EphA2 expression of clinical samples. In the xenograft animal model, the excised BxPc-3 and Mia PaCa-2 tumors were fixed in formalin, embedded in paraffin, and sliced for immunohistochemical staining (IHC). Commercial antibodies (Cell signaling, Dako; Agilent Technologies; and Abcam) were used for staining the EphA2 molecule, cell proliferation marker Ki-67, and apoptosis marker cleaved caspase 3. The effects of staining were observed using a Zeiss Axioskop-2 microscope (Carl Zeiss).
(§3) Administration of IgG hSD5 (20 mg/kg, iv, qwk, indicated as blue filled inverted triangles) and Gemcitabine (100 mg/kg, iv, biw, indicated as orange filled squares) were used to test the inhibition effect on BxPc-3 tumor growth, n=6, TGI denotes Tumor growth inhibition. (FIG. 7A) Administration of IgG hSD5 (2 mg/kg, iv, qwk, indicated by solid black triangles), Gemcitabine (20 mg/kg, iv, biw, indicated by black open squares), and the experimental group that combined IgG and Gemcitabine treatment simultaneously (indicated by solid red diamonds) were used to teat the growth inhibitory effect of BxPc-3 on the tumor. (FIG. 7B) During treatments, the weight changes of each mouse group were tracked. (FIG. 7C) The expression levels of EphA2, cell proliferation marker Ki67, and apoptosis-related marker cleaved caspase3 in the excised tumor groups were analyzed by IHC staining. (FIG. 7D)

Mia PaCa-2 tumor = Mia PaCa-2 tumor xenograft model (IgG hSD5, gemcitabine); format: in vivo, mouse; conditions: Mia PaCa-2 xenograft
Protocol: as §1, §2
as §3, with “Mia PaCa-2 xenograft mice was also used to determine the inhibitory effect of IgG hSD5 on in vivo tumor growth. Administration of” for “Administration of”, “inhibition. (FIG. 8A) Administration of” for “inhibition. (FIG. 7A) Administration of”, “tumor. (FIG. 8B) During treatments,” for “tumor. (FIG. 7B) During treatments,”, “tracked. (FIG. 8C) The expression” for “tracked. (FIG. 7C) The expression”, “staining. (FIG. 8D)” for “staining. (FIG. 7D)”

[1] = target: T1, recombinant EphA2 protein (UniProt P29317 24-537, limits assumed); experiment: biolayer interferometry
T1 construct: Coated on ELISA plates, run on Native-PAGE and used in biolayer interferometry
T1 sequence (P29317 24-537 limits assumed): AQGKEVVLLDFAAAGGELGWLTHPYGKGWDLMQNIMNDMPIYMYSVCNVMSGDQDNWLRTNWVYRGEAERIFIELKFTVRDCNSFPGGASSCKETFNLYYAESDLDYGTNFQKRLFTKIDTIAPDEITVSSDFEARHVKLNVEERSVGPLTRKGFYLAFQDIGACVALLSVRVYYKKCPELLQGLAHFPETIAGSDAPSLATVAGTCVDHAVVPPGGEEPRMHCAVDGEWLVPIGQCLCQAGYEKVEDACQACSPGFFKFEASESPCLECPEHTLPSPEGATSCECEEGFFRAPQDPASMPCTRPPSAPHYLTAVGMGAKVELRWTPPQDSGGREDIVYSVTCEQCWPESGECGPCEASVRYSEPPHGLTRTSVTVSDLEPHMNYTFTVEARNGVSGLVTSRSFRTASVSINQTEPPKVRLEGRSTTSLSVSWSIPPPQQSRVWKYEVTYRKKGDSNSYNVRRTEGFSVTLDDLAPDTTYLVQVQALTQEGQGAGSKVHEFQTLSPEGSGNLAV

[2] = target: T2, EphA2pep_P1 (BSA-CGGGWDLMQNIMNDMPIYMYSV) (conjugated with BSA (printed BSA-C...)); experiment: peptide ELISA on BSA-conjugated peptides
T2 peptide: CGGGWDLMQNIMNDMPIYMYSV
Protocol: (§4) These peptides were synthesized and conjugated with BSA (Kelowna International Scientific). The BSA-conjugated peptides were individually coated on a 96-well microplate at 4° C. overnight. […] Next, an HRP-conjugated anti-HA tag antibody (Cell Signaling Technology) was used to detect bound scFv. Finally, the TMB substrate was added for development, and the reaction was stopped by adding 1 N HCl. Absorbance was measured by determining the OD at 450 nm. […] Blocking with 3% BSA was performed at RT for 1 h. […] After the membrane was washed, the HRP-conjugated anti-HA tag antibody was added, and the reaction was allowed to proceed for 1 h at RT. Lastly, DAB was used to initiate the coloration reaction.
(§5) The two short peptides located on the designed activation site of EphA2 are EphA2pep_P1 and EphA2pep_P2, respectively. The long peptide formed by linking the two short peptides is EphA2pep_PIP2. NCIpep and NC2pep are two irrelevant peptides as the negative control. EphA2 ECD is a recombinant EphA2 extracellular domain protein.

[3] = target: T3, EphA2pep_PIP2 (BSA-CGGGWDLMQNIMNDMPIYMYSVGGGGGGSVSSDFEARHV) (conjugated with BSA (printed BSA-C...)); experiment: peptide ELISA on BSA-conjugated peptides
T3 construct: also called long peptide
T3 peptide: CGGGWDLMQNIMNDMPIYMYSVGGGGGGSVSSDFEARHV
Protocol: as §4, §5

[4] = target: T4, EphA2pep_P2 (BSA-CGGGGGGSVSSDFEARHV); experiment: peptide ELISA on BSA-conjugated peptides
T4 peptide: {BSA}-CGGGGGGSVSSDFEARHV
Protocol: as §4, §5

[5] = target: T1, recombinant EphA2 protein; experiment: ELISA, serially diluted scFv on coated recombinant EphA2
Protocol: The recombinant EphA2 protein (0.5 ug/well) was coated onto the wells of the microtiter plate at 4° C. overnight. The wells were blocked with 5% skim milk, and scFv or phage was then added to the wells at room temperature for 1 h. After the wells were washed with PBST, the bound scFv or phage was then detected and developed using horseradish peroxidase (HRP)-conjugated goat anti-chicken light chain antibodies (Bethyl Laboratories) or HRP-conjugated anti-M13 antibodies (GE Healthcare Life Science). Finally, the substrate 3,5,5-tetramethubezidine dihydrochloride (TMB) was added for signal development. The reaction was stopped by adding 1 N HCl, and absorbance was measured by determining optical density (OD) at 450 nm.
Four representative scFvs were serially diluted to test the percentage of binding to EphA2 molecules. (FIG. 3C) After gene sequencing, we serially diluted the four isolated representative scFvs to test the binding reaction to EphA2.

BxPc-3 cells = experiment: Antibody internalization (endocytosis) assay; format: cell-based, human; conditions: BxPc-3, 1 h, 37° C. vs 4° C. (FIG. 6B)
Protocol: BxPc-3 cells were seeded on cover glasses placed in the wells of a 6-well culture plate. The BxPc-3 seeded glass slides were incubated with ephrin A1-Fc (Sino Biological) or IgG hSD5 for 1 h at 37° C. or 4° C. After washing with PBS, the cells were fixed with 100% ice methanol for 10 min. Next, the cells were stained with an FITC-conjugated anti-human Fc antibody and were subsequently mounted with ProLong Diamond Antifade Mountant comprising 4′,6-diamidino-2-phenylindole for nuclear counterstaining (Invitrogen). The cells were imaged using a confocal microscope (Leica Microsystems).

Molecule: Nc1ccn([C@@H]2O[C@H](CO)[C@@H](O)C2(F)F)c(=O)n1 [Gemcitabine, reference compound]
- TGI (tumor growth inhibition) (BxPc-3 tumor; 20 mg/kg, biw): 34.6%
- TGI (tumor growth inhibition) (BxPc-3 tumor; 100 mg/kg, qwk): 59.8%
- TGI (tumor growth inhibition) (Mia PaCa-2 tumor; 20 mg/kg gemcitabine): 38.7%
- TGI (tumor growth inhibition) (Mia PaCa-2 tumor; 100 mg/kg): 73.7%

- Kd [1]: 2.06 nM
- binding result [2]: binds
- binding result [3]: binds
- binding result [4]: binds
B1: Humanized IgG hSD5 (antibody, V domains shown)
VH: QVQLVESGGGLVQPGGSLRLSCAASGFTFSDYGMGWVRQAPGKGLEWVAGISAAGSFTPYGAAVKGRFTISRDNSKNTVYLQMNSLRAEDTAVYYCARIPSGYRAGEIYTWGQGTLVTVSS
VL: LTQPPSVSVSPGQTVRITCSGSSGSYGWYQQKSPGQAPVTLIYDNDKRPSGIPERFSGSSSGSTSTLTISGVQAEDEADYYCGSADSSTYVGMFGGGTKLTVL
notes: also called hSD5 IgG; hSD5 IgG1

- EC50 [5]: 1.8 nM
B2: scFv SD5 (scFv)
scFv: LTQPSSVSANLGETVKIPCSGSSGSYGWYQQKSPGSAPVTLIYDNDKRPSDIPSRFFGSTSGSTSTLTITGVQAEDEAVYFCGSADSSTYVGMFGAGTTLTVLGQSSRSSTVTLDESGGGLQTPGGGLSLVCKASGFTFSDYGMGWVRQAPGKGLEFVAGISAAGSFTPYGAAVKGRATISRDNGQSTVRLQLNNLRSEDTGIYYCARIPSGYRAGEIYTWGQGTEVIVSS
notes: also called antibody SD5

B3: ephrin-A1: ligand of EphA2, recombinant, used as a positive control (protein)
chain: DRHTVFWNSSNPKFRNEDYTIHVQLNDYVDIICPHYEDHSVADAAMEQYILYLVEHEEYQLCQPQSKDQVRWQCNRPSAKHGPEKLSEKFQRFTPFTLGKEFKEGHSYYYISKPIHQHEDRCLRLKVTVSGKITHSPQAHDNPQEKRLAADDPEVRVLHSIGHS
modifications: left off: a dimerising Fc or GST
notes: ligand of EphA2, recombinant, used as a positive control
- endocytosis after targeting EphA2 (BxPc-3 cells): endocytosed from the cell membrane into the cytoplasm
